22 molecules from patent publication US20260209350A1 (Alector, published 2026) can be followed below.

Changes are numbered by the printed parent chain.

Test [1] concerns the target T1, mouse TREM2 on cells (mouse, UniProt Q99NH8 19-227).
T1 construct: whole, on cells; Used for the recombinant protein on BWZ/BW cells (with mouse DAP12) and for the native protein on mouse macrophages and dendritic cells; the cell type stands under assay; also called mTREM2; mTrem2
T1 sequence (looked up): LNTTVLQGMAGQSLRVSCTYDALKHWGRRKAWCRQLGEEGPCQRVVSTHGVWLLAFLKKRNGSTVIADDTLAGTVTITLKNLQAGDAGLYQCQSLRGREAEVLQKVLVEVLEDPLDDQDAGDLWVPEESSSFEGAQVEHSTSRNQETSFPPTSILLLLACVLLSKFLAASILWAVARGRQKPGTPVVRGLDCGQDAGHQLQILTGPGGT
The test is described as follows: FACS, mTrem2 cells.

Test [2] has as its target T2, mouse TREM2 Fc fusion protein (mouse, UniProt Q99NH8 19-171).
T2 construct: also called mTREM2-Fc; not shown: Fc part not specified
T2 sequence (looked up): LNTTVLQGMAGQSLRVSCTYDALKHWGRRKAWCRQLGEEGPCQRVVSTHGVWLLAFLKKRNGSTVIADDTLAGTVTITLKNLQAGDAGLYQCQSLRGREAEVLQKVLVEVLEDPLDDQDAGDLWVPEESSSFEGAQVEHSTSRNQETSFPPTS
The test is described as follows: ForteBio or MSD-SET, avid.

For test [3], the target named is T3, human TREM2 Fc fusion protein (human, UniProt Q9NZC2 19-174).
T3 construct: also called hTREM2-Fc; not shown: Fc part not specified
T3 sequence: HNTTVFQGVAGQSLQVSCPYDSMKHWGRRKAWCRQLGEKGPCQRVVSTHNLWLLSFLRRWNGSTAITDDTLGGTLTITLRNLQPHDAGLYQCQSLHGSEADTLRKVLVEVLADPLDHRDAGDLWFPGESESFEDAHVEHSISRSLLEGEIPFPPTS
In words: ForteBio or MSD-SET, avid.

B1: Ab25 (antibody, human IgG1, V domains shown)
VH: not shown
VL: EIVLTQSPGTLSLSPGERATLSCRASQSVSSSYLAWYQQKPGQAPRLLIYGASSRATGIPDRFSGSGSGTDFTLTISRLEPEDFAVYYCQQDDRSPTFGGGTKVEIK
notes: human IgG1
In the case of B1, the MFI in test [1] is 2500 MFI. The Kd – broadly, the equilibrium constant for the complex coming apart – in test [2] stood at 5.98 nM.

B2: Ab29 (antibody, human IgG1, V domains shown)
VH: QVQLVESGGGVVQPGRSLRLSCAASGFTFSSYGMHWVRQAPGKGLEWVAVISYDGSNKYYADSVKGRFTISRDNSKNTLYLQMNSLRAEDTAVYYCARGQYYGGSGWFDPWGQGTLVTVSS
VL: B1 VL with D92P, D93G, R94A, S95V
notes: human IgG1
In the case of B2, the MFI in test [1] is 4520 MFI. Also, the results for the Kd in test [2] and in test [3] were 3.27 nM and 2.36 nM, respectively.

B3: Ab37 (antibody, human IgG1, V domains shown)
VH: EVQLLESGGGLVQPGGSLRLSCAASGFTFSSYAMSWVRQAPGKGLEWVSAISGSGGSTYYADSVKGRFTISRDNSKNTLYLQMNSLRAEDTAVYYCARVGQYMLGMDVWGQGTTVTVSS
VL: EIVLTQSPATLSLSPGERATLSCRASQSVSSYLAWYQQKPGQAPRLLIYDASNRATGIPARFSGSGSGTDFTLTISSLEPEDFAVYYCQQRAFLFTFGGGTKVEIK
notes: human IgG1
In test [1], B3 showed an MFI of 1430 MFI. Also, the binding result in test [2] is reported as “no binding”. Moreover, in test [3], the affinity, expressed as Kd, was 1.58 nM.

B4: Ab27 (antibody, human IgG1, V domains shown)
VH: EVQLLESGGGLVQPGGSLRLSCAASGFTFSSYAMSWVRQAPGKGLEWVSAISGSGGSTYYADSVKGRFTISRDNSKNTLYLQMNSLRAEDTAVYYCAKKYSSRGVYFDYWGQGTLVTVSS
VL: EIVLTQSPATLSLSPGERATLSCRASQSVSSYLAWYQQKPGQAPRLLIYDASNRATGIPARFSGSGSGTDFTLTISSLEPEDFAVYYCQQYNNFPPTFGGGTKVEIK
notes: human IgG1
The molecule B4 displayed an MFI in test [1] of 2160 MFI. Also, the Kd stood at 6.39 nM in test [2] and 1.33 nM in test [3].

B5: Ab80 (antibody, human IgG1, V domains shown)
VH: QVQLVQSGAEVKKPGSSVKVSCKASGGTFSSYAISWVRQAPGQGLEWMGGIIPIFGTANYAQKFQGRVTITADESTSTAYMELSSLRSEDTAVYYCARGGGTFWSGSWALYWGQGTLVTVSS
VL: B4 VL with N92V, F94W, P96F
notes: human IgG1
Consider B5, for which the MFI in test [1] was 593 MFI. The Kd stood at 8.85 nM in test [2] and 5.72 nM in test [3].

B6: Ab60 (antibody, human IgG1, V domains shown)
VH: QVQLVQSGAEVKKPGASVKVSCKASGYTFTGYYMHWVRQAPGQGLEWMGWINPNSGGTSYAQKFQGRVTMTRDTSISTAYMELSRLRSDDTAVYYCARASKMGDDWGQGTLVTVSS
VL: B4 VL with N53K, Y91R, N92A, N93S, F94M, P96I
notes: human IgG1
Regarding B6, the Kd in test [3] is 5.59 nM.

B7: Ab28 (antibody, human IgG1, V domains shown)
VH: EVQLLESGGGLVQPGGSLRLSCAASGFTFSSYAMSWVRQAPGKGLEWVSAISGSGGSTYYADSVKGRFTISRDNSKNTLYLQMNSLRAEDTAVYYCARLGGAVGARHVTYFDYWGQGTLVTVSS
VL: B4 VL with N53K, Y91R, N92Y, N93L, F94R, P96I
notes: human IgG1
Molecule B7 came in with an MFI in test [1] of 5250 MFI. In addition, the results for the Kd in test [2] and in test [3] were 7.45 nM and 0.915 nM, respectively.

B8: Ab41 (antibody, human IgG1, V domains shown)
VH: EVQLLESGGGLVQPGGSLRLSCAASGFTFSTYAMSWVRQAPGKGLEWVSAISGSGGSTYYADSVKGRFTISRDNSKNTLYLQMNSLRAEDTAVYYCARAMARKSVAFDIWGQGTMVTVSS
VL: B4 VL with A84T, Y91R, N92Y, N93A, F94L, P96I
notes: human IgG1
In the case of B8, the MFI in test [1] stood at 373 MFI. Also, the Kd in test [2] came out at 8.64 nM; in test [3] it was 2.14 nM.

B9: Ab75 (antibody, human IgG1, V domains shown)
VH: not shown
VL: B4 VL with Y91V, N92S, F94Y, P96F
notes: human IgG1
As to B9, the MFI in test [1] was determined as 276 MFI. Moreover, the binding result in test [2] is given as “no binding”. In addition, the Kd in test [3] came out at 5.88 nM.

B10: Ab81 (antibody, human IgG1, V domains shown)
VH: QVQLVQSGAEVKKPGSSVKVSCKASGGTFSSYAISWVRQAPGQGLEWMGGIIPIFGTANYAQKFQGRVTITADESTSTAYMELSSLRSEDTAVYYCARDSGNYDYWSGALRYWGQGTLVTVSS
VL: B4 VL with Y91S, N92S, F94W, P96W
notes: human IgG1
B10: in test [1], the MFI turned out to be 400 MFI. Besides, in test [2], the binding result is recorded as “no binding”. Moreover, in test [3], the Kd is 10.1 nM.

B11: Ab61 (antibody, human IgG1, V domains shown)
VH: QVQLVQSGAEVKKPGASVKVSCKASGYTFTSYGIHWVRQAPGQGLEWMGWISAYNGNTNYAQKLQGRVTMTTDTSTSTAYMELRSLRSDDTAVYYCARGGVPRVSYFQHWGQGTLVTVSS
VL: B4 VL with A51S, Y91A, N92F, F94R
notes: human IgG1
In turn, B11 returned an MFI in test [1] of 10500 MFI. The Kd in test [3] is 4.61 nM.

B12: Ab74 (antibody, human IgG1, V domains shown)
VH: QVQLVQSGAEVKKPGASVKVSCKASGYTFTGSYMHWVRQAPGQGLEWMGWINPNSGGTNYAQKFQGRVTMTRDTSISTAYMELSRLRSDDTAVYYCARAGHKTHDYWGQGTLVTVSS
VL: B4 VL with Y91R, N92S, N93T, P96I
notes: human IgG1
In the case of B12, the MFI in test [1] was determined as 1360 MFI. Moreover, the values for the Kd in test [2] and in test [3] were 4.91 nM and 9.43 nM, respectively.

B13: Ab79 (antibody, human IgG1, V domains shown)
VH: EVQLVESGGGLVQPGGSLRLSCAASGFTFSSYSMNWVRQAPGKGLEWVSYISGSSSTIYYADSVKGRFTISRDNAKNSLYLQMNSLRAEDTAVYYCARGGRRHYGGMDVWGQGTTVTVSS
VL: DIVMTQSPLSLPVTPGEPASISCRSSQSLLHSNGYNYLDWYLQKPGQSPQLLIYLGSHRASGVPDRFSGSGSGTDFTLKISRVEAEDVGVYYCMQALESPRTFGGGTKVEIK
notes: human IgG1
Take B13: the MFI in test [1] turned out to be 738 MFI. In addition, in test [2], the binding result is “no binding”. In addition, the Kd in test [3] is 10.7 nM.

B14: Ab76 (antibody, human IgG1, V domains shown)
VH: EVQLVESGGGLVKPGGSLRLSCAASGFTFSSYSMNWVRQAPGKGLEWVSSISSSSSYIYYADSVKGRFTISRDNAKNSLYLQMNSLRAEDTAVYYCARGGGRRGDNNWFDPWGQGTLVTVSS
VL: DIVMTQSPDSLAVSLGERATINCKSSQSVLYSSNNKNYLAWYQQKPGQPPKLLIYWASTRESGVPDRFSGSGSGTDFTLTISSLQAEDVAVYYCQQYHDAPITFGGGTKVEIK
notes: human IgG1
In test [3], B14 yielded an equilibrium dissociation constant (Kd) of 4.84 nM.

B15: Ab24 (antibody, human IgG1, V domains shown)
VH: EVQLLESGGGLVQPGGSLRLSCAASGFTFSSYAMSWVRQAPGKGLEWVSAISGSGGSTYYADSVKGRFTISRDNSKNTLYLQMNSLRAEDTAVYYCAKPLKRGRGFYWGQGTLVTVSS
VL: DIQMTQSPSSLSASVGDRVTITCRASQSISSYLNWYQQKPGKAPKLLIYAASSLQSGVPSRFSGSGSGTDFTLTISSLQPEDFATYYCQQAFSPPPWTFGGGTKVEIK
notes: human IgG1
B15: in test [1], the MFI stood at 2760 MFI. Further, the Kd in test [2] was 9.32 nM; in test [3], 0.479 nM.

B16: Ab85 (antibody, human IgG1, V domains shown)
VH: QVQLVESGGGVVQPGRSLRLSCAASGFTFSSYGMHWVRQAPGKGLEWVAVIWYDGSNKYYADSVKGRFTISRDNSKNTLYLQMNSLRAEDTAVYYCAKDLGGYYGGAAYGMDVWGQGTTVTVSS
VL: B15 VL with M4L, L11V, S28D, Y32W, N34A, A91E, F92V, S93D, P94Y, W97L
notes: human IgG1
Consider B16, for which the MFI in test [1] was found to be 1120 MFI. Besides, the equilibrium dissociation constant (Kd) was found to be 2.19 nM in test [2] and 5.72 nM in test [3].

B17: Ab77 (antibody, human IgG1, V domains shown)
VH: QVQLVESGGGVVQPGRSLRLSCAASGFTFSSYGMHWVRQAPGKGLEWVAVISYDGSNKYYADSVKGRFTISRDNSKNTLYLQMNSLRAEDTAVYYCARGPPHEMDYWGQGTLVTVSS
VL: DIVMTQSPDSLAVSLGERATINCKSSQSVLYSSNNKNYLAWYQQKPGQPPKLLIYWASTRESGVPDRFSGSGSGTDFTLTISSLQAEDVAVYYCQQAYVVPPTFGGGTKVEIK
notes: human IgG1
The molecule B17 registered an MFI in test [1] of 1650 MFI. Also, the binding result in test [2] is “no binding”.

B18: Ab86 (antibody, human IgG1, V domains shown)
VH: QVQLVESGGGVVQPGRSLRLSCAASGFTFSSYGMHWVRQAPGKGLEWVAVISYDGSNKYYADSVKGRFTISRDNSKNTLYLQMNSLRAEDTAVYYCAKDGVYYGLGNWFDPWGQGTLVTVSS
VL: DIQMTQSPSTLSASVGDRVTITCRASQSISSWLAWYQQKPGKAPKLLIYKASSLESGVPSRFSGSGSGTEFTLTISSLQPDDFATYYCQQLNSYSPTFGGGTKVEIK
notes: human IgG1
B18: the MFI in test [1] was determined as 355 MFI. Besides, the Kd in test [2] amounted to 6.55 nM; in test [3], 3.89 nM.

B19: Ab30 (antibody, human IgG1, V domains shown)
VH: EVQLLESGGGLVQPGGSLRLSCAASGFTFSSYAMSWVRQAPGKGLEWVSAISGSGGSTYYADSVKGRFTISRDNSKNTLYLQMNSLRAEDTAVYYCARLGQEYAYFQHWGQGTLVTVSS
VL: DIQMTQSPSSLSASVGDRVTITCRASQSISSYLNWYQQKPGKAPKLLIYGASSLQSGVPSRFSGSGSGTDFTLTISSLQPEDFATYYCQQVYITPITFGGGTKVEIK
notes: human IgG1
Turning to B19, the binding result in test [2] is on record as “no binding”. In test [3], this molecule showed an equilibrium dissociation constant (Kd) of 1.32 nM.

B20: Ab82 (antibody, human IgG1, V domains shown)
VH: QVQLQESGPGLVKPSQTLSLTCTVSGGSISSGGYYWSWIRQHPGKGLEWIGYIYYSGSTVYNPSLKSRVTISVDTSKNQFSLKLSSVTAADTAVYYCARVSSSWYKAWGQGTMVTVSS
VL: B19 VL with L11V, S28G, Y32W, N34A, G50A, V91A, Y92S, I93T, T94F
notes: human IgG1
For the molecule B20, in test [1], the MFI came to 712 MFI. The values for the Kd in test [2] and in test [3] were 5.82 nM and 11 nM, respectively.

B21: Ab83 (antibody, human IgG1, V domains shown)
VH: QVQLQQWGAGLLKPSETLSLTCAVYGGSFSGYYWSWIRQPPGKGLEWIGEIDHSGSTKYNPSLKSRVTISVDTSKNQFSLKLSSVTAADTAVYYCARVGVVVGRPGYSAFDIWGQGTMVTVSS
VL: B19 VL with L11V, S28G, Y32W, N34A, G50A, V91R, Y92N, I93S, T94L, I96L
notes: human IgG1
In turn, B21 yielded a Kd in test [3] of 8.21 nM.

B22: Ab73 (antibody, human IgG1, V domains shown)
VH: EVQLVQSGAEVKKPGESLKISCKGSGYSFTSYWIGWVRQMPGKGLEWMGIIYPGDSDTTYSPSFQGQVTISADKSISTAYLQWSSLKASDTAMYYCARAKMLDDGYAFDIWGQGTMVTVSS
VL: EIVMTQSPATLSVSPGERATLSCRASQSVSSNLAWYQQKPGQAPRLLIYGASTRATGIPARFSGSGSGTEFTLTISSLQSEDFAVYYCQQDDNYPYTFGGGTKVEIK
notes: human IgG1
Turning to B22, the MFI in test [1] amounted to 1120 MFI. The binding result in test [2] was “no binding”. In test [3], this molecule came in with a Kd of 4.1 nM.
